Test [1] concerns the target T1, CaV2.2 Ct-dis-GST fusion protein (distal end of the C-terminus of CaV2.2) (rat, UniProt Q02294 2121-2336).
T1 construct: range 2133-2348; also called distal C-terminus; not shown: GST tag of the pGex-3x-Glu vector
Nature of the test: SPR (BIAcore 3000), immobilized Ct-dis-GST.

In test [2] the target is T2, CaV2.2 L1-GST fusion protein (first cytosolic loop of CaV2.2) (rat, UniProt Q02294 356-483).
T2 construct: range 356-483; also called cytosolic loop 1; first intracellular loop; not shown: GST tag of the pGex-3x-Glu vector
The test is described as follows: SPR (BIAcore 3000), immobilized L1-GST. In general terms: Surface plasmon resonance follows binding to a sensor surface in real time, without labels.

T1 sequence (Q02294 other isoform, or with tags, fused parts or gaps): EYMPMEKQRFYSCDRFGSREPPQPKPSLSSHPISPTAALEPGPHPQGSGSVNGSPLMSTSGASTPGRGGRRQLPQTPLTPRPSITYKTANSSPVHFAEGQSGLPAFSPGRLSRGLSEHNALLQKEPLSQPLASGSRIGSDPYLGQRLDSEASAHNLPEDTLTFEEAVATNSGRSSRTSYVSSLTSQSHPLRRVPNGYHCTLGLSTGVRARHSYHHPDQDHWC
T2 sequence (Q02294 other isoform, or with tags, fused parts or gaps): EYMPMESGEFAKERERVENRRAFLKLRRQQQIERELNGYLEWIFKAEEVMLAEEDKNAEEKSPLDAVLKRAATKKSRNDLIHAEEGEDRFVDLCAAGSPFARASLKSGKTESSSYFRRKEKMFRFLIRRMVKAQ

B1: TAT-Scramble (modified TAT sequence coupled to a random sequence) (peptide)
peptide: YGRKKRRQRRRWEAKEMLYFEALVIE
notes: also called TAT control; scramble peptide
Take B1: the binding result in test [1] and in test [2] was “no binding (tested: 1/3/5 µM)” in each case.
